Several values for one entry are separate records, joined by “and”; a condition that tells them apart may be missing. Identical values can stand only once.
B1: wild-type canine IgG-B Fc polypeptide (SASA tag) (protein, part only; not given: SASA tag, not shown: another chain or arm of the molecule; small tags and cut ends)
Fc: PAPEMLGGPSVFIFPPKPKDTLLIARTPEVTCVVVDLDPEDPEVQISWFVDGKQMQTAKTQPREEQFNGTYRVVSVLPIGHQDWLKGKQFTCKVNNKALPSPIERTISKARGQAHQPSVYVLPPSREELSKNTVSLTCLIKDFFPPDIDVEWQSNGQQEPESKYRTTPPQLDEDGSYFLYSKLSVDKSRWQRGDTFICAVMHEALHNHYTQESLSHSPGK
B2: variant canine IgG-B Fc polypeptide L(23)Y (SASA tag) (protein, part only; not given: SASA tag, not shown: another chain or arm of the molecule; small tags and cut ends)
Fc: PAPEMLGGPSVFIFPPKPKDTLYIARTPEVTCVVVDLDPEDPEVQISWFVDGKQMQTAKTQPREEQFNGTYRVVSVLPIGHQDWLKGKQFTCKVNNKALPSPIERTISKARGQAHQPSVYVLPPSREELSKNTVSLTCLIKDFFPPDIDVEWQSNGQQEPESKYRTTPPQLDEDGSYFLYSKLSVDKSRWQRGDTFICAVMHEALHNHYTQESLSHSPGK
B3: variant canine IgG-B Fc polypeptide L(23)F (SASA tag) (protein, part only; not given: SASA tag, not shown: another chain or arm of the molecule; small tags and cut ends)
Fc: PAPEMLGGPSVFIFPPKPKDTLFIARTPEVTCVVVDLDPEDPEVQISWFVDGKQMQTAKTQPREEQFNGTYRVVSVLPIGHQDWLKGKQFTCKVNNKALPSPIERTISKARGQAHQPSVYVLPPSREELSKNTVSLTCLIKDFFPPDIDVEWQSNGQQEPESKYRTTPPQLDEDGSYFLYSKLSVDKSRWQRGDTFICAVMHEALHNHYTQESLSHSPGK
B4: variant canine IgG-B Fc polypeptide L(23)M (SASA tag) (protein, part only; not given: SASA tag, not shown: another chain or arm of the molecule; small tags and cut ends)
Fc: PAPEMLGGPSVFIFPPKPKDTLMIARTPEVTCVVVDLDPEDPEVQISWFVDGKQMQTAKTQPREEQFNGTYRVVSVLPIGHQDWLKGKQFTCKVNNKALPSPIERTISKARGQAHQPSVYVLPPSREELSKNTVSLTCLIKDFFPPDIDVEWQSNGQQEPESKYRTTPPQLDEDGSYFLYSKLSVDKSRWQRGDTFICAVMHEALHNHYTQESLSHSPGK
B5: variant canine IgG-B Fc polypeptide L(23)S (SASA tag) (protein, part only; not given: SASA tag, not shown: another chain or arm of the molecule; small tags and cut ends)
Fc: PAPEMLGGPSVFIFPPKPKDTLSIARTPEVTCVVVDLDPEDPEVQISWFVDGKQMQTAKTQPREEQFNGTYRVVSVLPIGHQDWLKGKQFTCKVNNKALPSPIERTISKARGQAHQPSVYVLPPSREELSKNTVSLTCLIKDFFPPDIDVEWQSNGQQEPESKYRTTPPQLDEDGSYFLYSKLSVDKSRWQRGDTFICAVMHEALHNHYTQESLSHSPGK

These binders were tested against canine FcRn with a poly-His tag and canine B2M heterodimer complex (canine) (assay: SPR (Biacore T200), biotinylated canine FcRn/B2M complex on chip, Fc as analyte, pH 6.0).
Sequence of canine FcRn with a poly-His tag and canine B2M heterodimer complex (canine) (chain, as listed by the source limits assumed, chain 1 of 2): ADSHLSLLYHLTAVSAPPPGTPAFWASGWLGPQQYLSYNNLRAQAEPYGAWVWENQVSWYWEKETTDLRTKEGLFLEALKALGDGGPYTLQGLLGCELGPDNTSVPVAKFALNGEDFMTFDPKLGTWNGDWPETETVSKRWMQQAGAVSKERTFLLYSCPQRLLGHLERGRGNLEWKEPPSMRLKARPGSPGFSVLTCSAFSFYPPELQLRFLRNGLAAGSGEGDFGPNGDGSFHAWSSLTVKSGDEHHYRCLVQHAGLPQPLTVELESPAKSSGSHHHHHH
Sequence of canine FcRn with a poly-His tag and canine B2M heterodimer complex (canine) (b2m, as listed by the source limits assumed, chain 2 of 2): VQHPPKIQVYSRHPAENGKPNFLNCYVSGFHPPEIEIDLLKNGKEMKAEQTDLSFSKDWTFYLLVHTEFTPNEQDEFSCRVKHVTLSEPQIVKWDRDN

Question: With B1 as the binder, how does the koff read?
Answer: 0.122 s⁻¹

Question: For B2, which koff is on record?
Answer: 0.0138 s⁻¹

Question: Which koff does the source give for B3 here?
Answer: 0.0631 s⁻¹ and 0.0847 s⁻¹

Question: B4 was tested. Which koff did it give?
Answer: 0.126 s⁻¹

Question: How did the koff turn out when B5 was run?
Answer: 0.241 s⁻¹

— US20240067738A1
